According to PMC2582589 (Structure (London, England : 1993), 2008):
Like-named read-outs stand apart in the source and are kept apart here. Square brackets hold non-standard residues; d marks the D form. Ends that are not written are not given here. Lys(Me3) = C[N+](C)(C)CCCC[C@H](N)C(=O)O

Columns and labels:
[1] = target: T1, Eaf3 chromo barrel domain (1–113 aa) (Saccharomyces cerevisiae, UniProt Q12432); assay: 15N-1H HSQC NMR titration of 15N-labeled Eaf3; assay type: binding; settings: for affinity for Eaf3 (in words): HSQC titration, pH 6.7; for affinity relative to other methylated ligands (in words): from KD comparison
T1 sequence (Q12432 1-113): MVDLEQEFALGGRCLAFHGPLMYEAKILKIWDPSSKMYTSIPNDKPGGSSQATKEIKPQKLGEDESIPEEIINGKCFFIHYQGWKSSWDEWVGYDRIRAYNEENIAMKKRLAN

[2] = Protein stability, precipitation or aggregation of Eaf3 constructs; assay type: physicochemical; settings: purified proteins expressed in Escherichia coli or NMR samples
[3] = target: T2, Eaf3 chromo barrel domain (1–113 aa) (S. cerevisiae, UniProt Q12432 1-113); assay: NMR titration
T2 sequence (looked up): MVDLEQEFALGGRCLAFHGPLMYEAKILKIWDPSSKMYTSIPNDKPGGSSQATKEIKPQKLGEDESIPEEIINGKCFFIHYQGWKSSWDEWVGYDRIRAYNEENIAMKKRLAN

[4] = tested on: Eaf3 chromo barrel domain and linked H3KC36me2; assay: 15N-1H HSQC spectra of fused Eaf3-H3C36; assay type: binding, Saccharomyces cerevisiae; settings: 15N-1H HSQC before and after dimethylation, 300K, pH 6.7
[5] = Gel filtration chromatography of extended Eaf3; assay type: physicochemical; settings: change in gel filtration chromatography retention time (data not shown)
[6] = read-out: dissociation constant (KD), 15N-1H HSQC titration, 15N-labeled Eaf3 (1–113 aa), 300K, 20 mM NaPi pH 6.7, 50 mM NaCl, 1 mM EDTA, 2 mM DTT, range of estimates from amide peaks of two to four selected amino acids, curve fitting

## CN(C)C(N)=NCCC[C@H](N)C(=O)O [asymmetrically dimethylated arginine, reference compound]
[1]; 300K
  affinity for Eaf3 (in words): does not have any significant affinity

## C[N+](C)(C)CCCC[C@H](N)C(=O)O [trimethyllysine, trimethylated lysine, reference compound]
[1]
  Kd: 8.6 to 19.2 mM
  affinity relative to other methylated ligands (in words): significantly lower than that measured with trimethylated peptides under similar conditions

## ATGGVK36me3KPHRYR [H3K36me3]
[1]; 300K
  affinity for Eaf3 (in words): very low affinity (KD in the millimolar range)
[1]; 300K, listed as methylated H3K36 peptide
  affinity for Eaf3 (in words): millimolar-range affinity
[1]
  affinity relative to other methylated ligands (in words): comparable to that determined for the Eaf3-H3K4me3 complex
[1]; [6]
  Kd: 1.8 to 3.4 mM

## ATGGVKC36me3KPHRYR (ATGGVCKPHRYR; not fully specified (residue 6)) [H3KC36me3]
[1]
  affinity relative to other methylated ligands (in words): only slightly lower than that of the H3K36me3 peptide

## KRHRK20me3VLRDN [H4K20me3]
[1]; [6]
  Kd: 3 to 4 mM

B1: Eaf3: N-terminal 1–113 aa of budding yeast Eaf3 (protein)
chain: MVDLEQEFALGGRCLAFHGPLMYEAKILKIWDPSSKMYTSIPNDKPGGSSQATKEIKPQKLGEDESIPEEIINGKCFFIHYQGWKSSWDEWVGYDRIRAYNEENIAMKKRLAN
[2]
  protein stability / precipitation / aggregation (in words): has a tendency to aggregate

## ART[Lys(Me3)]QTARKS [H3K4me3 peptide (1–10 aa)]
[3]
  Kd: 1 to 3 mM

B2: Y23A: single-point mutation in Eaf3-H3C36 (protein, UniProt Q12432 1-401, looked up, variant Y23A)
Chromatin …: MVDLEQEFALGGRCLAFHGPLMAEAKILKIWDPSSKMYTSIPNDKPGGSSQATKEIKPQKLGEDESIPEEIINGKCFFIHYQGWKSSWDEWVGYDRIRAYNEENIAMKKRLANEAKEAKKSLLEQQKKKKLSTSLGGPSNGGKRKGDSRSNASISKSTSQSFLTSSVSGRKSGRSSANSLHPGSSLRSSSDQNGNDDRRRSSSLSPNMLHHIAGYPTPKISLQIPIKLKSVLVDDWEYVTKDKKICRLPADVTVEMVLNKYEHEVSQELESPGSQSQLSEYCAGLKLYFDKCLGNMLLYRLERLQYDELLKKSSKDQKPLVPIRIYGAIHLLRLISVLPELISSTTMDLQSCQLLIKQTEDFLVWLLMHVDEYFNDKDPNRSDDALYVNTSSQYEGVALGM
modifications: fused to histone H3 peptide
[2]
  protein stability / precipitation / aggregation (in words): unstable and highly prone to precipitation

B3: W84A: single-point mutation in Eaf3-H3C36 (protein, UniProt Q12432 1-401, looked up, variant W84A)
Chromatin …: MVDLEQEFALGGRCLAFHGPLMYEAKILKIWDPSSKMYTSIPNDKPGGSSQATKEIKPQKLGEDESIPEEIINGKCFFIHYQGAKSSWDEWVGYDRIRAYNEENIAMKKRLANEAKEAKKSLLEQQKKKKLSTSLGGPSNGGKRKGDSRSNASISKSTSQSFLTSSVSGRKSGRSSANSLHPGSSLRSSSDQNGNDDRRRSSSLSPNMLHHIAGYPTPKISLQIPIKLKSVLVDDWEYVTKDKKICRLPADVTVEMVLNKYEHEVSQELESPGSQSQLSEYCAGLKLYFDKCLGNMLLYRLERLQYDELLKKSSKDQKPLVPIRIYGAIHLLRLISVLPELISSTTMDLQSCQLLIKQTEDFLVWLLMHVDEYFNDKDPNRSDDALYVNTSSQYEGVALGM
modifications: fused to histone H3 peptide
[4]
  spectral change upon dimethylation of fused H3C36: Very little spectral change
[2]
  protein stability / precipitation / aggregation (in words): prone to precipitation

B4: Y81A: single-point mutation in Eaf3-H3C36 (protein, UniProt Q12432 1-401, looked up, variant Y81A)
Chromatin …: MVDLEQEFALGGRCLAFHGPLMYEAKILKIWDPSSKMYTSIPNDKPGGSSQATKEIKPQKLGEDESIPEEIINGKCFFIHAQGWKSSWDEWVGYDRIRAYNEENIAMKKRLANEAKEAKKSLLEQQKKKKLSTSLGGPSNGGKRKGDSRSNASISKSTSQSFLTSSVSGRKSGRSSANSLHPGSSLRSSSDQNGNDDRRRSSSLSPNMLHHIAGYPTPKISLQIPIKLKSVLVDDWEYVTKDKKICRLPADVTVEMVLNKYEHEVSQELESPGSQSQLSEYCAGLKLYFDKCLGNMLLYRLERLQYDELLKKSSKDQKPLVPIRIYGAIHLLRLISVLPELISSTTMDLQSCQLLIKQTEDFLVWLLMHVDEYFNDKDPNRSDDALYVNTSSQYEGVALGM
modifications: fused to histone H3 peptide
[2]
  protein stability / precipitation / aggregation (in words): unstable and highly prone to precipitation

B5: W88A: single-point mutation in Eaf3-H3C36 (protein, UniProt Q12432 1-401, looked up, variant W88A)
Chromatin …: MVDLEQEFALGGRCLAFHGPLMYEAKILKIWDPSSKMYTSIPNDKPGGSSQATKEIKPQKLGEDESIPEEIINGKCFFIHYQGWKSSADEWVGYDRIRAYNEENIAMKKRLANEAKEAKKSLLEQQKKKKLSTSLGGPSNGGKRKGDSRSNASISKSTSQSFLTSSVSGRKSGRSSANSLHPGSSLRSSSDQNGNDDRRRSSSLSPNMLHHIAGYPTPKISLQIPIKLKSVLVDDWEYVTKDKKICRLPADVTVEMVLNKYEHEVSQELESPGSQSQLSEYCAGLKLYFDKCLGNMLLYRLERLQYDELLKKSSKDQKPLVPIRIYGAIHLLRLISVLPELISSTTMDLQSCQLLIKQTEDFLVWLLMHVDEYFNDKDPNRSDDALYVNTSSQYEGVALGM
modifications: fused to histone H3 peptide
[4]
  spectral change upon dimethylation of fused H3C36: Very little spectral change

B6: Eaf3 (1–126 aa): Eaf3 extended by 13 residues (protein)
chain: MVDLEQEFALGGRCLAFHGPLMYEAKILKIWDPSSKMYTSIPNDKPGGSSQATKEIKPQKLGEDESIPEEIINGKCFFIHYQGWKSSWDEWVGYDRIRAYNEENIAMKKRLANEAKEAKKSLLEQQ
[5]
  oligomerization (in words): apparent homodimerization

## ATGGV[Lys(Me3)]KPHRYR [H3K36me3 peptide (31–42 aa)]
[3]
  Kd: 1.8 to 3.4 mM

## ATGGVCKPHRYR (not fully specified (residue 6)) [H3KC36me3 peptide (31–42 aa)]
[3]
  Kd: 5 to 7 mM

## KRHR[Lys(Me3)]VLRDN [H4K20me3 peptide (16–25 aa)]
[3]
  Kd: 3 to 4 mM
